Measurements from patent publication US20230406885A1, “CYCLIC PEPTIDES FOR TRAPPING INTERLEUKIN-1 BETA” (MERCK SHARP & DOHME LLC, priority 2022, published 2023).
*1 amine or outer side, *2 acyl side, *3 side chain or, on linkers, in order; H or OH if unused. [ ]: non-standard residue; d: D form. TyrEtNAc = L-tyrosine O-ethyl acetamide, (S)-3-(4-(2-acetamidoethoxy)phenyl)-2-aminopropanoic acid, CC(=O)NCCOc1ccc(C[C@H](N[*:1])C(=O)[*:2])cc1; dDabMe3 = [(R)-3-amino-3-carboxypropyl]-trimethylazanium, C[N+](C)(C)CC[C@@H](N[*:1])C(=O)[*:2]; Phe(4-(4-Ac-piperazinyl)) = CC(=O)N1CCN(c2ccc(C[C@H](N)C(=O)O)cc2)CC1; Pro(trans-4-NH2) = O=C([C@@H]1C[C@@H](N[*:3])CN1[*:1])[*:2]; Bip(4'-COOH) = N[C@@H](Cc1ccc(-c2ccc(C(=O)O)cc2)cc1)C(=O)O; 1Nal(3S-Me) = C[C@@H](c1cccc2ccccc12)[C@H](N)C(=O)O; Ala(indolin-1-yl) = N[C@@H](CN1CCc2ccccc21)C(=O)O; Trp(6-Cl) = N[C@@H](Cc1c[nH]c2cc(Cl)ccc12)C(=O)O; Phe(4-COOH) = N[C@@H](Cc1ccc(C(=O)O)cc1)C(=O)O; Trp(6-F) = N[C@@H](Cc1c[nH]c2cc(F)ccc12)C(=O)O; Trp(7-aza) = N[C@@H](Cc1c[nH]c2ncccc12)C(=O)O; hTyr = N[C@@H](CCc1ccc(O)cc1)C(=O)O; hCha = N[C@@H](CCC1CCCCC1)C(=O)O; dDab = NCC[C@@H](N)C(=O)O; Orn = NCCC[C@H](N)C(=O)O; dNMeA = CN[C@H](C)C(=O)O

B1: SEQ ID NO: 209 (Example No. 209) (peptide)
peptide: cyclo([Phe(4-(4-Ac-piperazinyl))]W[Phe(4-COOH)]G[Pro(trans-4-NH2)][1Nal(3S-Me)]D[dNMeA]G[Bip(4'-COOH)][Orn]L[dA][hCha])
SMILES: CC(=O)N1CCN(c2ccc(C[C@@H]3NC(=O)[C@H](CCC4CCCCC4)NC(=O)[C@@H](C)NC(=O)[C@H](CC(C)C)NC(=O)[C@H](CCCN)NC(=O)[C@H](Cc4ccc(-c5ccc(C(=O)O)cc5)cc4)NC(=O)CNC(=O)[C@@H](C)N(C)C(=O)[C@H](CC(=O)O)NC(=O)[C@H]([C@@H](C)c4cccc5ccccc45)NC(=O)[C@@H]4C[C@@H](N)CN4C(=O)CNC(=O)[C@H](Cc4ccc(C(=O)O)cc4)NC(=O)[C@H](Cc4c[nH]c5ccccc45)NC3=O)cc2)CC1
B2: SEQ ID NO: 210 (Example No. 210) (peptide)
peptide: cyclo([TyrEtNAc][Trp(6-Cl)][Phe(4-COOH)]G[Pro(trans-4-NH2)][1Nal(3S-Me)]D[dNMeA]G[Bip(4'-COOH)][Trp(7-aza)]S[dDab][hCha])
SMILES: CC(=O)NCCOc1ccc(C[C@@H]2NC(=O)[C@H](CCC3CCCCC3)NC(=O)[C@@H](CCN)NC(=O)[C@H](CO)NC(=O)[C@H](Cc3c[nH]c4ncccc34)NC(=O)[C@H](Cc3ccc(-c4ccc(C(=O)O)cc4)cc3)NC(=O)CNC(=O)[C@@H](C)N(C)C(=O)[C@H](CC(=O)O)NC(=O)[C@H]([C@@H](C)c3cccc4ccccc34)NC(=O)[C@@H]3C[C@@H](N)CN3C(=O)CNC(=O)[C@H](Cc3ccc(C(=O)O)cc3)NC(=O)[C@H](Cc3c[nH]c4cc(Cl)ccc34)NC2=O)cc1
B3: SEQ ID NO: 211 (Example No. 211) (peptide)
peptide: cyclo([TyrEtNAc][Trp(6-F)][Phe(4-COOH)]G[Pro(trans-4-NH2)][1Nal(3S-Me)]D[dNMeA]G[Bip(4'-COOH)][Ala(indolin-1-yl)]G[dDab][hTyr])
SMILES: CC(=O)NCCOc1ccc(C[C@@H]2NC(=O)[C@H](CCc3ccc(O)cc3)NC(=O)[C@@H](CCN)NC(=O)CNC(=O)[C@H](CN3CCc4ccccc43)NC(=O)[C@H](Cc3ccc(-c4ccc(C(=O)O)cc4)cc3)NC(=O)CNC(=O)[C@@H](C)N(C)C(=O)[C@H](CC(=O)O)NC(=O)[C@H]([C@@H](C)c3cccc4ccccc34)NC(=O)[C@@H]3C[C@@H](N)CN3C(=O)CNC(=O)[C@H](Cc3ccc(C(=O)O)cc3)NC(=O)[C@H](Cc3c[nH]c4cc(F)ccc34)NC2=O)cc1
B4: SEQ ID NO: 212 (Example No. 212) (peptide)
peptide: cyclo([TyrEtNAc][Trp(6-F)][Phe(4-COOH)]G[Pro(trans-4-NH2)][1Nal(3S-Me)]D[dNMeA]G[Bip(4'-COOH)][Trp(7-aza)]S[dDab][hCha])
SMILES: CC(=O)NCCOc1ccc(C[C@@H]2NC(=O)[C@H](CCC3CCCCC3)NC(=O)[C@@H](CCN)NC(=O)[C@H](CO)NC(=O)[C@H](Cc3c[nH]c4ncccc34)NC(=O)[C@H](Cc3ccc(-c4ccc(C(=O)O)cc4)cc3)NC(=O)CNC(=O)[C@@H](C)N(C)C(=O)[C@H](CC(=O)O)NC(=O)[C@H]([C@@H](C)c3cccc4ccccc34)NC(=O)[C@@H]3C[C@@H](N)CN3C(=O)CNC(=O)[C@H](Cc3ccc(C(=O)O)cc3)NC(=O)[C@H](Cc3c[nH]c4cc(F)ccc34)NC2=O)cc1
B5: SEQ ID NO: 213 (Example No. 213) (peptide)
peptide: cyclo([TyrEtNAc][Trp(6-F)][Phe(4-COOH)]G[Pro(trans-4-NH2)][1Nal(3S-Me)]D[dNMeA]G[Bip(4'-COOH)][Trp(7-aza)]S[dDabMe3][hCha])
SMILES: CC(=O)NCCOc1ccc(C[C@@H]2NC(=O)[C@H](CCC3CCCCC3)NC(=O)[C@@H](CC[N+](C)(C)C)NC(=O)[C@H](CO)NC(=O)[C@H](Cc3c[nH]c4ncccc34)NC(=O)[C@H](Cc3ccc(-c4ccc(C(=O)O)cc4)cc3)NC(=O)CNC(=O)[C@@H](C)N(C)C(=O)[C@H](CC(=O)O)NC(=O)[C@H]([C@@H](C)c3cccc4ccccc34)NC(=O)[C@@H]3C[C@@H](N)CN3C(=O)CNC(=O)[C@H](Cc3ccc(C(=O)O)cc3)NC(=O)[C@H](Cc3c[nH]c4cc(F)ccc34)NC2=O)cc1
B6: SEQ ID NO: 214 (Example No. 214) (peptide)
peptide: cyclo([TyrEtNAc]W[Phe(4-COOH)]G[Pro(trans-4-NH2)][1Nal(3S-Me)]D[dNMeA]G[Bip(4'-COOH)][Trp(7-aza)]G[dDab][hCha])
SMILES: CC(=O)NCCOc1ccc(C[C@@H]2NC(=O)[C@H](CCC3CCCCC3)NC(=O)[C@@H](CCN)NC(=O)CNC(=O)[C@H](Cc3c[nH]c4ncccc34)NC(=O)[C@H](Cc3ccc(-c4ccc(C(=O)O)cc4)cc3)NC(=O)CNC(=O)[C@@H](C)N(C)C(=O)[C@H](CC(=O)O)NC(=O)[C@H]([C@@H](C)c3cccc4ccccc34)NC(=O)[C@@H]3C[C@@H](N)CN3C(=O)CNC(=O)[C@H](Cc3ccc(C(=O)O)cc3)NC(=O)[C@H](Cc3c[nH]c4ccccc34)NC2=O)cc1
B7: SEQ ID NO: 215 (Example No. 215) (peptide)
peptide: cyclo([TyrEtNAc]W[Phe(4-COOH)]G[Pro(trans-4-NH2)][1Nal(3S-Me)]D[dNMeA]G[Bip(4'-COOH)][Trp(7-aza)]G[dDab][hTyr])
SMILES: CC(=O)NCCOc1ccc(C[C@@H]2NC(=O)[C@H](CCc3ccc(O)cc3)NC(=O)[C@@H](CCN)NC(=O)CNC(=O)[C@H](Cc3c[nH]c4ncccc34)NC(=O)[C@H](Cc3ccc(-c4ccc(C(=O)O)cc4)cc3)NC(=O)CNC(=O)[C@@H](C)N(C)C(=O)[C@H](CC(=O)O)NC(=O)[C@H]([C@@H](C)c3cccc4ccccc34)NC(=O)[C@@H]3C[C@@H](N)CN3C(=O)CNC(=O)[C@H](Cc3ccc(C(=O)O)cc3)NC(=O)[C@H](Cc3c[nH]c4ccccc34)NC2=O)cc1

molecular target: Recombinant human IL-1β (BioLegend 579404) (human, UniProt P01584 117-269); assay: cell-based or functional assay

Binder	MRC5 IC50 [nM]
B1	0.009
B2	0.02
B3	0.027
B4	0.025
B5	0.018
B6	0.02
B7	0.024
